Laboratory results taken from article PMC3939855.

T1: IRF3 (endogenous, MEFs) (mouse (endogenous in MEFs)), P70671
T1 chain: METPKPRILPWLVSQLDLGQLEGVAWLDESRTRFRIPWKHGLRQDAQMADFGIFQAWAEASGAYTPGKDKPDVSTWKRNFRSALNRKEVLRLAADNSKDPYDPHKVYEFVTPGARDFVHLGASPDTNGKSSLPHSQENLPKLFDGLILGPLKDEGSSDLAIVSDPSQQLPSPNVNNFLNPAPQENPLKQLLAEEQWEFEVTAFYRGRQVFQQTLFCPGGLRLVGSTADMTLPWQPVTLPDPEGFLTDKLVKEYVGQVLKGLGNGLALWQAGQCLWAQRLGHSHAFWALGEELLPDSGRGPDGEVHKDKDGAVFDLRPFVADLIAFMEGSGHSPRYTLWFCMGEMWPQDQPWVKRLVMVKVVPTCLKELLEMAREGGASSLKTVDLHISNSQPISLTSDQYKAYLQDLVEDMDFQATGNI

T2: IRF3 (endogenous, 293T cells) (human (endogenous in 293T)), Q14653
T2 chain: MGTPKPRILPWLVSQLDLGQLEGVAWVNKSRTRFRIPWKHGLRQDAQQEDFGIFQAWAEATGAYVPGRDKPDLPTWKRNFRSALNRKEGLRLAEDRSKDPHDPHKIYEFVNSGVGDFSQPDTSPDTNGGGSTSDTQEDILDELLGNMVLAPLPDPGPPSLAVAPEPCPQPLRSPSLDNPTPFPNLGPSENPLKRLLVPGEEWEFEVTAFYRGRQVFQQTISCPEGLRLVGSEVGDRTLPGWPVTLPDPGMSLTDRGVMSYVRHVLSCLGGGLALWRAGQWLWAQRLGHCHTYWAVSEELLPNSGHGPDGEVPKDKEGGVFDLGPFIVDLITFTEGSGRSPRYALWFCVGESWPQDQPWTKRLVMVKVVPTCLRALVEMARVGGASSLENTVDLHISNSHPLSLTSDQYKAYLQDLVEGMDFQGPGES

B1: IRF3 (endogenous, MEFs), P70671 1-419 (natural protein)
chain: T1 chain
B2: IRF3 (endogenous, 293T cells), Q14653 1-427 (natural protein)
chain: T2 chain

Assays:
[1] = target: T1, IRF3 (endogenous, MEFs) (mouse …); test: native gel or EMSA; settings: remark: other sources report otherwise
[2] = target: T2, IRF3 (endogenous, 293T cells) (human …); test: native gel or EMSA; settings: remark: other sources report otherwise

Row | Binder | stoichiometry N [1] | stoichiometry N [2]
1 | B1 | 2 | –
2 | B2 | – | 2
